# Results as given in the supplement of paper PMC6379048.
# Tests used:
# [1] = molecular target: CSNK2A1 (UniProt P68400); assay: Kd (EC50 corrected by depletion factor)
# Summary of the method: (§1)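 HEK293-FT lysate (2.5 mg protein/well) was pre-incubated 1 h at 4°C with free RNA oligos (0 nM to 30 μM), then 30 min at 4°C with the same 5′-amino-C6 oligos coupled to NHS-Sepharose beads. Bound proteins were quantified by label-free LC-MS/MS in three biological replicates and two independent experiments, and normalised to the water control. EC50 came from a four-parameter log-logistic fit; Kd is EC50 times a protein-dependent depletion factor.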
# [2] = molecular target: CSNK2B (UniProt P67870); assay: Kd (EC50 corrected by depletion factor)
# Summary of the method: as §1
# [3] = molecular target: P4HA1 (UniProt P13674); assay: Kd (EC50 corrected by depletion factor)
# Summary of the method: as §1
# [4] = molecular target: TUBB2A (UniProt Q13885); assay: Kd (EC50 corrected by depletion factor)
# Summary of the method: as §1
# [5] = molecular target: T1, RBM14 (UniProt Q96PK6); assay: Kd (EC50 corrected by depletion factor)
# T1 sequence: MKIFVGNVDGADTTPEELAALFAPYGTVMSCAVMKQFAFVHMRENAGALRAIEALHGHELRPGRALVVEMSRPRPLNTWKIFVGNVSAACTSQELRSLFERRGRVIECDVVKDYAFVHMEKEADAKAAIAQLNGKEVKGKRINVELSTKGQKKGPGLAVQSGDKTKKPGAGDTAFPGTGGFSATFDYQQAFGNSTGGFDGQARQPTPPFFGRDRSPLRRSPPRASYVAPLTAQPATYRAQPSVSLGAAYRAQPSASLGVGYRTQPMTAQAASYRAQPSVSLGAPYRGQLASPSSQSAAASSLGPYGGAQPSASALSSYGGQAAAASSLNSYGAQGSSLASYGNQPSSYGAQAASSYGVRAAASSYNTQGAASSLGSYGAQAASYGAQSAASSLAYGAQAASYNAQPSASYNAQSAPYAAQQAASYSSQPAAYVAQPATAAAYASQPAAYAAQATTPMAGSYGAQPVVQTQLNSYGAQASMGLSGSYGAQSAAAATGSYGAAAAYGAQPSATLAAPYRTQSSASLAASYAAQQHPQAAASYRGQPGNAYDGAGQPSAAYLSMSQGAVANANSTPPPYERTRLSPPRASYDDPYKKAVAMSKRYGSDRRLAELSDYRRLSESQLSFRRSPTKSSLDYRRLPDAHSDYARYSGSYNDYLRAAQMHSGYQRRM
# Summary of the method: as §1
# [6] = molecular target: HSP90AB2P (UniProt Q58FF8); assay: Kd (EC50 corrected by depletion factor)
# Summary of the method: as §1
# [7] = molecular target: RPL7 (UniProt P18124); assay: EC50 of free RNA motif oligo competing protein binding to immobilised probe
# Summary of the method: as §1
# [8] = molecular target: P4HB (UniProt P07237); assay: as above
# Summary of the method: as §1
# [9] = molecular target: T2, HMGB2 (UniProt P26583); assay: as above
# T2 sequence: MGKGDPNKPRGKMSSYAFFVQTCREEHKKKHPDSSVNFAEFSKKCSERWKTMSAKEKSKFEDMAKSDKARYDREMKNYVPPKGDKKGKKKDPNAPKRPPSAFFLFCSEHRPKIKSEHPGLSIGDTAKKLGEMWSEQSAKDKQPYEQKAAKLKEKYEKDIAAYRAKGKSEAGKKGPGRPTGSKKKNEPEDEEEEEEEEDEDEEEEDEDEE
# Summary of the method: as §1
# [10] = molecular target: CPSF4 (UniProt O95639); assay: as above
# Summary of the method: as §1
# [11] = molecular target: MRPL37 (UniProt Q9BZE1); assay: Kd (EC50 corrected by depletion factor)
# Summary of the method: as §1
# [12] = molecular target: PCBP2 (UniProt Q15366); assay: Kd (EC50 corrected by depletion factor)
# Summary of the method: as §1
# [13] = molecular target: MRPS18A (UniProt Q9NVS2); assay: Kd (EC50 corrected by depletion factor)
# Summary of the method: as §1
# [14] = molecular target: RPS14 (UniProt P62263); assay: Kd (EC50 corrected by depletion factor)
# Summary of the method: as §1
# [15] = molecular target: MRPL1 (UniProt Q9BYD6); assay: Kd (EC50 corrected by depletion factor)
# Summary of the method: as §1
# [16] = molecular target: MRPL50 (UniProt Q8N5N7); assay: EC50 of free RNA motif oligo competing protein binding to immobilised probe
# Summary of the method: as §1
# [17] = molecular target: MRPL38 (UniProt Q96DV4); assay: as above
# Summary of the method: as §1
# [18] = molecular target: T3, PRPF31 (UniProt Q8WWY3); assay: Kd (EC50 corrected by depletion factor)
# T3 sequence: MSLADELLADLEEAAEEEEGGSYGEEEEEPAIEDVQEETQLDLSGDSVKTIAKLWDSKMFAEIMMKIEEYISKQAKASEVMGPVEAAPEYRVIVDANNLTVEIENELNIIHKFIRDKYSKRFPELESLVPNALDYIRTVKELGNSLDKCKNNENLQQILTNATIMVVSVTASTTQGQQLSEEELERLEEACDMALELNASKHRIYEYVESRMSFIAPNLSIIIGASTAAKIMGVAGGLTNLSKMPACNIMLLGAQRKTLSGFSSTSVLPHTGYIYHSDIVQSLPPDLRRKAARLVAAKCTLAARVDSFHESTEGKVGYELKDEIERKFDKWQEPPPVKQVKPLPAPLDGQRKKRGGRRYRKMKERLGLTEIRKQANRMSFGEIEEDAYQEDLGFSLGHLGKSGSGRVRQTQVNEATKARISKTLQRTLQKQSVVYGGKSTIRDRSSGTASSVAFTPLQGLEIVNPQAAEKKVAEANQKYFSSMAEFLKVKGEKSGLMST
# Summary of the method: as §1
# [19] = molecular target: PTCD3 (UniProt Q96EY7); assay: Kd (EC50 corrected by depletion factor)
# Summary of the method: as §1
# [20] = molecular target: DAP3 (UniProt P51398); assay: EC50 of free RNA motif oligo competing protein binding to immobilised probe
# Summary of the method: as §1
# Sequence of P4HA1 (P13674 whole entry): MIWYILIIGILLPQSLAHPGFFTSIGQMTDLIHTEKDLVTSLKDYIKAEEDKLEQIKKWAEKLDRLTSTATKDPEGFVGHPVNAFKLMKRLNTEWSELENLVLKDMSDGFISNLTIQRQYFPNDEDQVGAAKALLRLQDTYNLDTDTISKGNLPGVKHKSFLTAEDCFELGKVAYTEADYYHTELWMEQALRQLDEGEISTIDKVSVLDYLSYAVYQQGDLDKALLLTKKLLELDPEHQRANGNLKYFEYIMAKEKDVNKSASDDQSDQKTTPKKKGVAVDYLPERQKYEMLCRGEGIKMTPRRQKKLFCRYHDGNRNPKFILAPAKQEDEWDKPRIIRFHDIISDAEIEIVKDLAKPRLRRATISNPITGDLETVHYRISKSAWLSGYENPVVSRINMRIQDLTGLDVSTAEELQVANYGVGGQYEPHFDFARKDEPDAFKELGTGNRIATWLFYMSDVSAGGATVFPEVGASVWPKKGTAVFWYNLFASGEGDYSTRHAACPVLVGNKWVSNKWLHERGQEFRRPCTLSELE
# Sequence of HSP90AB2P (Q58FF8 whole entry): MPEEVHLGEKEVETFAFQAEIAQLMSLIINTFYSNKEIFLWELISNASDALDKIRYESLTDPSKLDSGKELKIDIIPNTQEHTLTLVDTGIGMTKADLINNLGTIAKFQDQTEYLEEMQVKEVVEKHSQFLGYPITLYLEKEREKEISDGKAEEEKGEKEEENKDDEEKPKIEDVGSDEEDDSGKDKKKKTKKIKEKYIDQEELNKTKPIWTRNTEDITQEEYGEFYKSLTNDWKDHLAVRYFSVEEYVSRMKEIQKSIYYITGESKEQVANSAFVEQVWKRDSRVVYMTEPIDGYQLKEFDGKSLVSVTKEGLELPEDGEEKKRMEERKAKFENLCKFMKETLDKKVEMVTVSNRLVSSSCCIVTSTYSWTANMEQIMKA
# Sequence of TUBB2A (Q13885 whole entry): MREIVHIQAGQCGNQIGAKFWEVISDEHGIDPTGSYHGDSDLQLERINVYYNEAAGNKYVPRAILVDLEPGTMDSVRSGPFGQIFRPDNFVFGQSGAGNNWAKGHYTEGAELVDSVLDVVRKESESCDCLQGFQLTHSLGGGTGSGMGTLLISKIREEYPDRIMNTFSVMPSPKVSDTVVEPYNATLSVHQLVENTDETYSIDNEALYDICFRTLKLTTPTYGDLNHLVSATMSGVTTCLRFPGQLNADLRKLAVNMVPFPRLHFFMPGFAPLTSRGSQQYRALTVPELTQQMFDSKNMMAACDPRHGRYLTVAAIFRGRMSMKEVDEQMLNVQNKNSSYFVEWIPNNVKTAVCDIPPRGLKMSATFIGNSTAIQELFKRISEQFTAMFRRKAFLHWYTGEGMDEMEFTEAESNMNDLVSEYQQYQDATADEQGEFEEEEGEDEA
# Sequence of P4HB (P07237 whole entry, looked up): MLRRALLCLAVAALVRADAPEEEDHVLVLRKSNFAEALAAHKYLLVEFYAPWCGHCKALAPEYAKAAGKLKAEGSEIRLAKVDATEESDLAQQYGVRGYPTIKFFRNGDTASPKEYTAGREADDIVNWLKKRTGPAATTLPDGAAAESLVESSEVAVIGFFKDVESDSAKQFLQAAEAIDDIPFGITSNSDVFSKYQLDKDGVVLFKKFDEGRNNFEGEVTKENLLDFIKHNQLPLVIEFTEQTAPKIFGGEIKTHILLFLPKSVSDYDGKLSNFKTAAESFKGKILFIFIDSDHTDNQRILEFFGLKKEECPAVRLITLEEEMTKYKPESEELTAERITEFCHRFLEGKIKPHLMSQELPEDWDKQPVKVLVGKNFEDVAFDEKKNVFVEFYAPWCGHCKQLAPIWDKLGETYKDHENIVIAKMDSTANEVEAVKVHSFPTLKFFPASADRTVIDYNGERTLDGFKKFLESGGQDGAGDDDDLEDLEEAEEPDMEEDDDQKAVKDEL
# Sequence of CSNK2B (P67870 whole entry): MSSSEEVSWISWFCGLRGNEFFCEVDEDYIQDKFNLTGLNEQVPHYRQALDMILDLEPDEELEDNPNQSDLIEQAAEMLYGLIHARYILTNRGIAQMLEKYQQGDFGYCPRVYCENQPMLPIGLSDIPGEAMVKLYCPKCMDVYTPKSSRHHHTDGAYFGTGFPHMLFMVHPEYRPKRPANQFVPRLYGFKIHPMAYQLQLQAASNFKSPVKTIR
# Sequence of PCBP2 (Q15366 whole entry): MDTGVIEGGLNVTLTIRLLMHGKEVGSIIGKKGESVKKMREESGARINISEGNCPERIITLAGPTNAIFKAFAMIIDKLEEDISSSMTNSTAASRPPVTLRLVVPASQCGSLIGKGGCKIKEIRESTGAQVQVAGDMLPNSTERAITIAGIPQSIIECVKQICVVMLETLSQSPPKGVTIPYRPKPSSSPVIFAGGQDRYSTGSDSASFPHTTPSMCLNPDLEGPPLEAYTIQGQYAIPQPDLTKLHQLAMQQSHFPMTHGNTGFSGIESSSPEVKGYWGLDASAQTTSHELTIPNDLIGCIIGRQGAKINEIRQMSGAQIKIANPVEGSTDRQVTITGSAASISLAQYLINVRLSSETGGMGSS
# Sequence of CPSF4 (O95639 whole entry): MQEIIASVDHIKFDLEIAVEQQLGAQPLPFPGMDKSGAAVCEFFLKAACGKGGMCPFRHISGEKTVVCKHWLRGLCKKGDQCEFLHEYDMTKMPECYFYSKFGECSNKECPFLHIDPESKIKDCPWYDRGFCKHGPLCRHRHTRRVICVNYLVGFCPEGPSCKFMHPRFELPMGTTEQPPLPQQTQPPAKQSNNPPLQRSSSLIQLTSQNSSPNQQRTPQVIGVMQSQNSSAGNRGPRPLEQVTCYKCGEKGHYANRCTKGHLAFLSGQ
# Sequence of CSNK2A1 (P68400 whole entry, looked up): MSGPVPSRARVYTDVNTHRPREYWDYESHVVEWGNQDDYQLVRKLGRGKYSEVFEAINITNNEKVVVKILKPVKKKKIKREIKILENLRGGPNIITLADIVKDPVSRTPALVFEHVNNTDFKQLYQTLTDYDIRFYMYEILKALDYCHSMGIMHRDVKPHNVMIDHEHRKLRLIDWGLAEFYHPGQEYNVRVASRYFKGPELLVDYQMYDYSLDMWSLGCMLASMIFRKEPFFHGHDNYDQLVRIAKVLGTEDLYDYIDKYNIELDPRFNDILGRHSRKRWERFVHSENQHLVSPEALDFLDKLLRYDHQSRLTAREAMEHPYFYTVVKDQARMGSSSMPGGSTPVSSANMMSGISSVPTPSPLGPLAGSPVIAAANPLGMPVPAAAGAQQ
sequence,measurement,setting,value
AAUAAA,Kd,[1],78.6 nM
same,Kd,[2],2220 nM
same,Kd,[3],23.8 nM
same,Kd,[4],1030 nM
same,Kd,[5],600 nM
same,Kd,[6],108 nM
same,EC50,[7],6.98 µM
same,EC50,[8],40.4 nM
same,EC50,[9],2.5 nM
same,EC50,[10],55.5 nM
CUGUCCU,Kd,[11],76.1 nM
same,Kd,[12],1240 nM
same,Kd,[13],23.9 nM
same,Kd,[14],126 nM
same,Kd,[15],80.4 nM
same,EC50,[16],244 nM
same,EC50,[17],119 nM
UAUUUAU,Kd,[18],2850 nM
same,Kd,[19],27.4 nM
same,EC50,[20],51.4 nM
